Measurements taken from paper PMC5581740.

Tested on: Cc1cn([C@H]2C[C@H](O)[C@@H](COP(=O)(O)OP(=O)(O)O[C@H]3O[C@H](C)[C@H](O)[C@H](N)[C@H]3O)O2)c(=O)[nH]c1=O
Assay: purified protein
Conditions: 5 mM N10-formyl-THF, 50 mM HEPPS pH 8.0, 0.20 uM enzyme

**Q.** FdtF (Salmonella enterica) was tested. Which Km did it give?
**A.** Its Km is 100 ± 10 µM.

**Q.** What about the kcat of the same substance?
**A.** The kcat was 15.5 ± 0.8 s⁻¹.

**Q.** And the kcat/Km?
**A.** The kcat/Km was 160000 ± 18000 M⁻¹ s⁻¹.
